This note sets out measurements from patent US20170165335A1 (IMMATICS BIOTECHNOLOGIES, published 2017).

Bounds are passed on as bounds.

Assay [1] deals with T1, peptide-receptive MHC class I molecule (HLA-A*02:01 with beta-2-microglobulin) of the UV-ligand exchange assay (human). Put plainly: UV-ligand exchange + anti-b2m ELISA; peptide exchange yield grade (+++ = 50%-75%). From the text:
(§1) Candidate peptides for T cell based therapies according to the present invention were further tested for their MHC binding capacity (affinity). The individual peptide-MHC complexes were produced by UV-ligand exchange, where a UV-sensitive peptide is cleaved upon UV-irradiation, and exchanged with the peptide of interest as analyzed. Only peptide candidates that can effectively bind and stabilize the peptide-receptive MHC molecules prevent dissociation of the MHC complexes. To determine the yield of the exchange reaction, an ELISA was performed based on the detection of the light chain (β2m) of stabilized MHC complexes. The assay was performed as generally described in Rodenko et al. (Rodenko et al., 2006).
(§2) 96 well MAXISorp plates (NUNC) were coated over night with 2 ug/ml streptavidin in PBS at room temperature, washed 4× and blocked for 1 h at 37° C. in 2% BSA containing blocking buffer. Refolded HLA-A*02:01/MLA-001 monomers served as standards, covering the range of 15-500 ng/ml. Peptide-MHC monomers of the UV-exchange reaction were diluted 100 fold in blocking buffer. Samples were incubated for 1 h at 37° C., washed four times, incubated with 2 ug/ml HRP conjugated anti-β2m for 1 h at 37° C., washed again and detected with TMB solution that is stopped with […]. Absorption was measured at 450 nm. Candidate peptides that show a high exchange yield (preferably higher than 50%, most preferred higher than 75%) are generally preferred for a generation and production of antibodies or fragments thereof, and/or T cell receptors or fragments thereof, as they show sufficient avidity to the MHC molecules and prevent dissociation of the MHC complexes.
(In an ELISA, binding on a coated surface is turned into a signal by an enzyme label.)

The target of assay [2] is T1, peptide-receptive MHC class I molecule …. Put plainly: UV-ligand exchange + anti-b2m ELISA; peptide exchange yield grade (++ = 20%-49%).
Excerpt: as §1, §2

Assay [3] shares this target. Put plainly: UV-ligand exchange + anti-b2m ELISA; peptide exchange yield grade (+ = <20%).
Excerpt: as §1, §2

B1: GLLDYATGAIGSV (peptide)
peptide: GLLDYATGAIGSV
notes: synthetic peptide
In the case of B1, the peptide exchange yield in assay [1] was in the range of 50 to 75%.

B2: RLDQRVPQI (peptide)
peptide: RLDQRVPQI
notes: synthetic peptide
As for B2, the peptide exchange yield in assay [2] is 20 to 49%.

B3: RMVEEIGVEL (peptide)
peptide: RMVEEIGVEL
notes: synthetic peptide
As for B3, in assay [2], the peptide exchange yield was in the range of 20 to 49%.

B4: FLKSGDAAIV (peptide)
peptide: FLKSGDAAIV
notes: synthetic peptide
For B4, the peptide exchange yield in assay [2] lay within 20 to 49%.

B5: SLANNVTSV (peptide)
peptide: SLANNVTSV
notes: synthetic peptide
As to B5, the peptide exchange yield in assay [2] is 20 to 49%.

B6: FLVDGSSAL (peptide)
peptide: FLVDGSSAL
notes: synthetic peptide
Regarding B6, the peptide exchange yield in assay [2] lay in the range of 20 to 49%.

B7: VMDSGDGVTHTV (peptide)
peptide: VMDSGDGVTHTV
notes: synthetic peptide
On to B7, for which the peptide exchange yield in assay [2] is 20 to 49%.

B8: SLLDDELMSL (peptide)
peptide: SLLDDELMSL
notes: synthetic peptide
For B8, in assay [2], the peptide exchange yield was in the range of 20 to 49%.

B9: ALMLQGVDL (peptide)
peptide: ALMLQGVDL
notes: synthetic peptide
Consider B9, for which the peptide exchange yield in assay [2] is 20 to 49%.

B10: VLISLKQAPLV (peptide)
peptide: VLISLKQAPLV
notes: synthetic peptide
With B10, in assay [2], the peptide exchange yield is 20 to 49%.

B11: FLVSNMLLAEA (peptide)
peptide: FLVSNMLLAEA
notes: synthetic peptide
As for B11, the peptide exchange yield in assay [1] lay within 50 to 75%.

B12: YLEEDVYQL (peptide)
peptide: YLEEDVYQL
notes: synthetic peptide
As for B12, the peptide exchange yield in assay [2] fell in the range of 20 to 49%.

B13: YLQGQRLDNVV (peptide)
peptide: YLQGQRLDNVV
notes: synthetic peptide
With B13, in assay [2], the peptide exchange yield was in the range of 20 to 49%.

B14: KLVDKSTEL (peptide)
peptide: KLVDKSTEL
notes: synthetic peptide
Turning to B14, in assay [2], the peptide exchange yield was in the range of 20 to 49%.

B15: HLMDQPLSV (peptide)
peptide: HLMDQPLSV
notes: synthetic peptide
For B15, the peptide exchange yield in assay [2] was in the range of 20 to 49%.

B16: APVNVTTEVKSV (peptide)
peptide: APVNVTTEVKSV
notes: synthetic peptide
Consider B16, for which the peptide exchange yield in assay [2] was in the range of 20 to 49%.

B17: YLQGQRLDNV (peptide)
peptide: YLQGQRLDNV
notes: synthetic peptide
For B17, in assay [2], the peptide exchange yield lay in the range of 20 to 49%.

B18: GLLKKINSV (peptide)
peptide: GLLKKINSV
notes: synthetic peptide
Consider B18, for which the peptide exchange yield in assay [2] was 20 to 49%.

B19: VLLDKIKNLQV (peptide)
peptide: VLLDKIKNLQV
notes: synthetic peptide
On to B19, for which the peptide exchange yield in assay [2] is 20 to 49%.

B20: TLLSNLEEA (peptide)
peptide: TLLSNLEEA
notes: synthetic peptide
B20: in assay [2], the peptide exchange yield lay within 20 to 49%.

B21: RLAGDGVGAV (peptide)
peptide: RLAGDGVGAV
notes: synthetic peptide
Turning to B21, the peptide exchange yield in assay [2] was in the range of 20 to 49%.

B22: SLAAAAGKQELA (peptide)
peptide: SLAAAAGKQELA
notes: synthetic peptide
For B22, in assay [3], the peptide exchange yield was below 20%.

B23: FLFDGSANLV (peptide)
peptide: FLFDGSANLV
notes: synthetic peptide
For the molecule B23, the peptide exchange yield in assay [2] was 20 to 49%.

B24: SLAAAAGKQEL (peptide)
peptide: SLAAAAGKQEL
notes: synthetic peptide
B24: the peptide exchange yield in assay [2] was in the range of 20 to 49%.

B25: LLAGQTYHV (peptide)
peptide: LLAGQTYHV
notes: synthetic peptide
Turning to B25, the peptide exchange yield in assay [2] is 20 to 49%.

B26: SLKEEVGEEAIV (peptide)
peptide: SLKEEVGEEAIV
notes: synthetic peptide
In the case of B26, the peptide exchange yield in assay [2] was in the range of 20 to 49%.

B27: VVDEGPTGV (peptide)
peptide: VVDEGPTGV
notes: synthetic peptide
In the case of B27, in assay [2], the peptide exchange yield lay in the range of 20 to 49%.

B28: FLQEYLDAI (peptide)
peptide: FLQEYLDAI
notes: synthetic peptide
As to B28, the peptide exchange yield in assay [1] was 50 to 75%.

B29: ALTQTGGPHV (peptide)
peptide: ALTQTGGPHV
notes: synthetic peptide
Turning to B29, in assay [2], the peptide exchange yield was 20 to 49%.

B30: KMFFLIDKV (peptide)
peptide: KMFFLIDKV
notes: synthetic peptide
Regarding B30, the peptide exchange yield in assay [1] was in the range of 50 to 75%.

B31: FLLDGSEGV (peptide)
peptide: FLLDGSEGV
notes: synthetic peptide
Regarding B31, the peptide exchange yield in assay [1] lay in the range of 50 to 75%.

B32: YLYDSETKNA (peptide)
peptide: YLYDSETKNA
notes: synthetic peptide
In the case of B32, the peptide exchange yield in assay [2] lay within 20 to 49%.

B33: VLLSEIEVA (peptide)
peptide: VLLSEIEVA
notes: synthetic peptide
In the case of B33, in assay [2], the peptide exchange yield lay within 20 to 49%.

B34: GLLEELVTV (peptide)
peptide: GLLEELVTV
notes: synthetic peptide
Consider B34, for which the peptide exchange yield in assay [2] is 20 to 49%.

B35: NLKGTFATL (peptide)
peptide: NLKGTFATL
notes: synthetic peptide
For B35, the peptide exchange yield in assay [3] was below 20%.

B36: YLDAMMNEA (peptide)
peptide: YLDAMMNEA
notes: synthetic peptide
With B36, in assay [2], the peptide exchange yield fell in the range of 20 to 49%.

B37: KLFNLSKEDDV (peptide)
peptide: KLFNLSKEDDV
notes: synthetic peptide
For B37, the peptide exchange yield in assay [2] was 20 to 49%.

B38: AQQESEIAGI (peptide)
peptide: AQQESEIAGI
notes: synthetic peptide
Regarding B38, in assay [2], the peptide exchange yield fell in the range of 20 to 49%.

B39: SLDSRLELA (peptide)
peptide: SLDSRLELA
notes: synthetic peptide
As for B39, in assay [2], the peptide exchange yield lay within 20 to 49%.

B40: TFAPVNVTTEVKSV (peptide)
peptide: TFAPVNVTTEVKSV
notes: synthetic peptide
For the molecule B40, the peptide exchange yield in assay [2] was in the range of 20 to 49%.

B41: FVSEIVDTV (peptide)
peptide: FVSEIVDTV
notes: synthetic peptide
In the case of B41, the peptide exchange yield in assay [1] was in the range of 50 to 75%.

B42: SSFGGLGGGSV (peptide)
peptide: SSFGGLGGGSV
notes: synthetic peptide
As for B42, in assay [3], the peptide exchange yield is below 20%.

B43: GLAAFKAFL (peptide)
peptide: GLAAFKAFL
notes: synthetic peptide
As to B43, the peptide exchange yield in assay [1] was in the range of 50 to 75%.

B44: FILDSAETTTL (peptide)
peptide: FILDSAETTTL
notes: synthetic peptide
Turning to B44, the peptide exchange yield in assay [2] is 20 to 49%.

B45: FLAQQESEI (peptide)
peptide: FLAQQESEI
notes: synthetic peptide
For the molecule B45, in assay [2], the peptide exchange yield lay within 20 to 49%.

B46: IVDDLTINL (peptide)
peptide: IVDDLTINL
notes: synthetic peptide
As for B46, the peptide exchange yield in assay [2] lay in the range of 20 to 49%.

B47: TLDGAAVNQV (peptide)
peptide: TLDGAAVNQV
notes: synthetic peptide
As to B47, the peptide exchange yield in assay [2] was 20 to 49%.

B48: FLYKIIDEL (peptide)
peptide: FLYKIIDEL
notes: synthetic peptide
B48: in assay [1], the peptide exchange yield is 50 to 75%.

B49: ALAAILTRL (peptide)
peptide: ALAAILTRL
notes: synthetic peptide
As to B49, the peptide exchange yield in assay [1] was 50 to 75%.

B50: LLVDDSFLHTV (peptide)
peptide: LLVDDSFLHTV
notes: synthetic peptide
B50: in assay [1], the peptide exchange yield was 50 to 75%.

B51: VLAKPGVISV (peptide)
peptide: VLAKPGVISV
notes: synthetic peptide
On to B51, for which, in assay [2], the peptide exchange yield was in the range of 20 to 49%.

B52: SLSAFTLFL (peptide)
peptide: SLSAFTLFL
notes: synthetic peptide
As to B52, the peptide exchange yield in assay [2] lay within 20 to 49%.

B53: SLKEEVGEEAI (peptide)
peptide: SLKEEVGEEAI
notes: synthetic peptide
Regarding B53, the peptide exchange yield in assay [2] is 20 to 49%.

B54: SLQEEHVAVA (peptide)
peptide: SLQEEHVAVA
notes: synthetic peptide
On to B54, for which, in assay [2], the peptide exchange yield lay within 20 to 49%.

B55: ALLSGLREA (peptide)
peptide: ALLSGLREA
notes: synthetic peptide
Take B55: the peptide exchange yield in assay [1] was 50 to 75%.

B56: NLVEKTPALV (peptide)
peptide: NLVEKTPALV
notes: synthetic peptide
For B56, the peptide exchange yield in assay [1] was in the range of 50 to 75%.

B57: ALLTFMEQV (peptide)
peptide: ALLTFMEQV
notes: synthetic peptide
As for B57, the peptide exchange yield in assay [1] fell in the range of 50 to 75%.

B58: SVDVSPPKV (peptide)
peptide: SVDVSPPKV
notes: synthetic peptide
For B58, in assay [2], the peptide exchange yield was 20 to 49%.
